“Also recorded” adds a separate entry of the source.
How the values were obtained:
[1] = tested on: human primary melanocytes (HEMn-DP); assay: IFN-γ inhibition of human primary melanocyte cell viability (CellTiter-Glo); format: cell-based; conditions: 72 hrs at 37° C.
Description: Materials and methods: To examine the dose-dependency of IFN-γ inhibition of human primary melanocytes (HEMn-DP) cell viability, HEMn-DP cells were seeded into a 96-well plate at a concentration of 10,000 cells/well in 100 μL assay medium (M254 supplemented with 1× HMGS, 10 ng/mL PMA plus Penicillin-Streptomycin) at 37° C. for 5 hours. After seeding, 100 μL of IFN-γ serial dilutions were added, followed by incubation at 37° C. for 72 hrs. Then, cell proliferation was measured using CellTiter-Glo kit (Promega) according to the manufacturer's instructions. Luminescence was measured with an iD3 multimode reader (Molecular Devices), and data analyzed using nonlinear regression curve fit using GraphPad Prism7.

[2] = tested on: human primary melanocytes (HEMn-DP); assay: IFN-γ inhibition of melanocyte melanogenesis (melanin content, absorbance 470 nm); format: cell-based
Description: Materials and methods: To examine the dose-dependency of IFN-γ inhibition of HEMn-DP cell melanogenesis, HEMn-DP cells were seeded into a 24-well plate at a concentration of 200,000 cells/well in 1 mL assay medium (M254 supplemented with 1× HMGS, 10 ng/mL PMA plus Penicillin-Streptomycin) with serial dilutions of IFN-γ, followed by incubation at 37° C. for 7 days. The cell assay medium was replaced by fresh medium with serially titrated concentrations of IFN-γ on day 3 and day 5. On day 7, cells were first washed with PBS twice, lysed in 250 μL of 1N NaOH/10% DMSO solution, then incubated at 80° C. for 1 hr. After lysis, each lysate was transfer to 96 well plate, and absorbance of melanin was then measured at […]. The relative melanin quantity was normalized with cell viability of each sample which was measured by CellTiter-Glo kit, and data were analyzed using nonlinear regression curve fit using GraphPad Prism7. To determine the potency of EI-001, HEMn-DP cells were seeded as previously described, and IFN-γ pre-incubated with indicated amounts of EI-001 for 25 min in 1 mL of assay medium. After incubation, the mixture was added to each well (final IFN-γ concentration is 20 ng/ml). Melanin content of melanocytes was determined as previously described.

primary melanocytes [3] = assay: Melanocyte cell viability after IFN-γ, chemokines, cell death inhibitors or 2A6Q, Day 2 and Day 7; format: cell-based, human; conditions: day 7 of treatment
Description: To determine cell viability of melanocyte after treatment with IFN-γ, CXCL9, CXCL10, CXCL11, at Day 2, and Day 7, the cells were collected and seeded into 96-well plates. After adhesion, cells were treated with IFN-γ (0, 10, 100 ng/ml) with different compounds: 2A6Q, CXCL9, CXCL10, CXCL11, ROS scavenger (NAC), necroptosis inhibitor (NEC-1), pyroptosis inhibitor (VX-765), apoptosis inhibitor (QVD-OPH), Ferroptosis inhibitor (Liproxstaitin-1, Ferrostatin-1, DFO). Cell viability was measured using a CellTiter-Glo luminescent cell viability assay kit (Promega) according to the manufacturer's protocol. The […] of the final reaction product was measured using a luminometer (SpectraMax® iD3 Multi-Mode Microplate Reader (Molecular Devices). After calculation, the viability of control cells was 100%, and all others were normalized to control and shown as relative cell viability (%). Treatment dosage N-acetylcysteine (NAC; 0.05 mM, 1 mM), Necrostatin-1 (NEC-1; 20 μM, 2 μM), Belnacasan (VX-765; 50 μg/mL, 5 μg/mL), Quinoline-Val Asp-Difluorophenoxymethylketone (QVD-OPH; 10 μM, 2 μM), Liproxstaitin-1 (10 μM, 5 μM, 1 μM, 0.05 μM), Ferrostatin-1 (5 μM, 1 μM), Deferoxamine (DFO; 10 μM, […], 1 μM, 0.05 μM), 2A6Q (10 μg/mL), CXCL9 (10 ng/mL, 10 pg/mL), CXCL10 (10 ng/ml, 10 pg/mL), CXCL11(10 ng/mL, 10 pg/mL).

MITF = assay: Melanin regulators in melanocytes (RNA sequencing, MITF immunoblot); format: cell-based, human
Description: (§1) Total RNA was extracted from melanocytes with an RNA purification kit (Zymo Research, r2050). After RNA samples were extracted from primary melanocytes and melanocytes cell line (Gibco), the samples were sent to Biotools Co., Ltd Taiwan for RNA sequence. The RNA quality was examined by Agilent Technologies 2100 Bio-analyzer with an RNA integrity value greater than 8. After rRNA depletion (Epicenter), RNA fragmentation, and library preparation (Illumina), the constructed libraries were then performed 150 bp paired-end sequencing by an Illumina NovaSeq6000 sequencer. The results from each sample were aligned to the GRCh38 genome by the HISAT2 software and analyzed by Biotools Co., Ltd Taiwan.
(§2) Cells were washed in PBS and lysed in RIPA lysis buffer with proteases inhibitor and Phenylmethanesulfonyl fluoride (PMSF; Sigma-Aldrich, P7626). The total cell lysates were sonicated and centrifuged at 4° C., 13000 rpm for 30 min. Protein concentration was quantified using the Bradford assay. The total cell lysates were separated by SDS-PAGE and transferred to a PVDF membrane. The membrane was blocked with 5% BSA or 5% milk in TBST for 1 hour at room temperature and incubated with primary antibodies overnight at 4° C. and HRP-conjugated secondary antibodies for hour at room temperature. The protein was visualized by Thermo ibright1500. Primary antibodies were follows: anti-human SLC7A11 (CST, 12691), anti-human SLC3A2 (CST, 13180), anti-IRF1 (CST, 8478), anti-MITF (CST, 12590), and anti-GAPDH (Abcam, ab8245).

primary melanocytes [4] = assay: Cell morphology assay in melanocytes; format: cell-based, human
melanocytes [5] = assay: Melanocyte apoptosis, Annexin V / 7AAD flow cytometry; format: cell-based, human; conditions: IFN-γ 10 or 100 ng/ml, 48 hrs
Description: Materials and methods: Melanocyte cell apoptosis was detected with Annexin V (BD, 550474) and 7AAD (1 mg/mL, Sigma A9400-1 MG). The cells were detached and resuspended with […] binding buffer (BD, 556454) containing Annexin V and 7AAD for 15 min at room temperature in the dark. Before analysis, cells were added to a […] binding buffer and immediately analyzed a on a flow cytometer (Verse BD).

SLC7A11 = assay: Ferroptosis regulators in melanocytes (RNA sequencing, SLC7A11 immunoblot); format: cell-based, human
Description: as §1, §2

melanocytes [6] = assay: Intracellular ROS in melanocytes (CM-H2DCFDA); format: cell-based, human; conditions: 10 and 100 ng/mL IFN-γ, day 7
Description: Materials and methods: For intracellular ROS measurement, melanocytes were washed with PBS and incubated with 20 μM CM-H2DCFDA (Invitrogen) for 30 min at 37° C. in the dark. The cells were resuspended with PBS and examined with flow cytometry at an excitation wavelength of 488 nm and an emission wavelength of 530 nm; the data were analyzed with FlowJo.

melanocytes [7] = assay: Lipid peroxidation in melanocytes (BODIPY 581/591 C11); format: cell-based, human; conditions: dose-dependent, Day 6
Description: For lipid peroxidation examination, melanocyte cells were seeded in a 6-well plate and treated with IFN-γ the next day. Melanocytes were washed with PBS and incubated with Hanks balanced salt solution (HBSS, Gibco) containing 5 μM BODIPY 581/591 C11 (Invitrogen, D3861) and incubated for 15 minutes at 37° C. in a tissue culture incubator. The cells were resuspended with fresh HBSS and examined with flow cytometry; the data were analyzed with FlowJo.

Row | IC50 of IFN-γ causing 50% inhibition of melanocyte melanogenesis ([2]; human primary melanocytes, 7 days, melanin content) | Molecule | IC50 of IFN-γ causing 50% inhibition of melanocyte viability [1] | melanin content of melanocytes under IFN-γ ([2]; spectrophotometer) | effect on cell viability of melanocytes (individual cytokine) (primary melanocytes [3]) | expression of MITF (immunoblot) (MITF; melanocytes, 24 hrs of treatment) | expression of melanin regulators (MITF, MLANA, TYRP1, DCTT, TYR, TRPM1) (MITF; primary melanocyte, IFN-γ 100 ng/ml 24 hrs vs control, transcriptome) | lowest concentration at which the morphology effect is present (primary melanocytes [4]; dose-dependent effect) | morphology change in melanocyte (loss of dendrite, ballooning of cytoplasm) (primary melanocytes [4]; primary melanocytes, 7 days of treatment) | early phase apoptosis in melanocytes (Annexin V) (melanocytes [5]) | expression of ferroptosis markers SLC7A11, SLC3A2, Ferritin, GPX4 and TFR1 (RNA sequencing) (SLC7A11; 24 hrs IFN-γ) | expression of SLC7A11 (immunoblot) (SLC7A11; 48 hours incubation with IFN-γ) | intracellular ROS in melanocytes (melanocytes [6]) | lipid peroxidation level in melanocytes (melanocytes [7])
1 | 0.392 ng/mL | IFN-γ: recombinant human interferon gamma, cytokine added to melanocytes (protein, UniProt P01579 24-161, looked up) Interferon gamma: QDPYVKEAENLKKYFNAGHSDVADNGTLFLGILKNWKEESDRKIMQSQIVSFYFKLFKNFKDDQSIQKSVETIKEDMNVKFFNSNKKKRDDFEKLTNYSVTDLNVQRKAIHELIQVMAELSPAAKTGKRKRSQMLFRG | 8.114 ng/mL | decrease in melanin content in a dose-dependent manner | significantly decreases | dose-dependently downregulates | induced downregulation of melanin regulators | 1 ng/ml | contributes to morphology change | induced early phase apoptosis; also recorded: significantly upregulate Annexin V but not 7AAD | downregulation | dose-dependently downregulated | significantly elevated | increased
2 | – | CXCL9: IFN-γ downstream cytokine added to melanocytes (protein, UniProt Q07325 23-125, looked up) C-X-C motif chemokine 9: TPVVRKGRCSCISTNQGTIHLQSLKDLKQFAPSPSCEKIEIIATLKNGVQTCLNPDSADVKELIKKWEKQVSQKKKQKNGKKHQKKKVLKVRKSQRSRQKKTT | – | – | not CXCL9, CXCL10, or CXCL11 significantly decreases | – | – | – | – | – | – | – | – | –
3 | – | CXCL11: IFN-γ downstream cytokine added to melanocytes (protein, UniProt O14625 22-94, looked up) C-X-C motif chemokine 11: FPMFKRGRCLCIGPGVKAVKVADIEKASIMYPSNNCDKIEVIITLKENKGQRCLNPKSKQARLIIKKVERKNF | – | – | not CXCL9, CXCL10, or CXCL11 significantly decreases | – | – | – | – | – | – | – | – | –
